# Laboratory results: US20220324969A1 (MYTHIC THERAPEUTICS, published 2022)
# Target: CD33 (Sino Biological, Cat #12238-H08H) (UniProt P20138 18-259)
# Assay: BLI, IgG captured on anti-human Fc sensor, 50 nM CD33, pH 7.4 vs pH 5.4
# CD33 (Sino Biological, Cat #12238-H08H), sequence (P20138 18-259 limits assumed): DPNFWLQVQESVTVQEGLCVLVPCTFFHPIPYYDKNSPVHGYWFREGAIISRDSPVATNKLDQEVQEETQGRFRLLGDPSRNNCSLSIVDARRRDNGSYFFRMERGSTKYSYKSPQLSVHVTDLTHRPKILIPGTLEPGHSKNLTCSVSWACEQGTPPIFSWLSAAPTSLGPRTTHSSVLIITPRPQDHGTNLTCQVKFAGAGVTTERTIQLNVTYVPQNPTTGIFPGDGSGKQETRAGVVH
row,Binder,binding result
1,"MYT1213 (antibody, V domains shown, IgG; IMGN779 VH variant #1 (G26H)) VH: QVQLQQPGAEVVKPGASVKMSCKASHYTFTSYYIHWIKQTPGQGLEWVGVIYPGNDDISYNQKFQGKATLTADKSSTTAYMQLSSLTSEDSAVYYCAREVRLRYFDVWGQGTTVTVSS VL: EIVLTQSPGSLAVSPGERVTMSCKSSQSVFFSSSQKNYLAWYQQIPGQSPRLLIYWASTRESGVPDRFTGSGSGTDFTLTISSVQPEDLAIYYCHQYLSSRTFGQGTKLEIK",binds
2,"MYT1217 (antibody, V domains shown, IgG; IMGN779 VH variant #5 (T30H)) VH: QVQLQQPGAEVVKPGASVKMSCKASGYTFHSYYIHWIKQTPGQGLEWVGVIYPGNDDISYNQKFQGKATLTADKSSTTAYMQLSSLTSEDSAVYYCAREVRLRYFDVWGQGTTVTVSS VL: EIVLTQSPGSLAVSPGERVTMSCKSSQSVFFSSSQKNYLAWYQQIPGQSPRLLIYWASTRESGVPDRFTGSGSGTDFTLTISSVQPEDLAIYYCHQYLSSRTFGQGTKLEIK",binds
3,"MYT1215 (antibody, V domains shown, IgG; IMGN779 VH variant #3 (T28H)) VH: QVQLQQPGAEVVKPGASVKMSCKASGYHFTSYYIHWIKQTPGQGLEWVGVIYPGNDDISYNQKFQGKATLTADKSSTTAYMQLSSLTSEDSAVYYCAREVRLRYFDVWGQGTTVTVSS VL: EIVLTQSPGSLAVSPGERVTMSCKSSQSVFFSSSQKNYLAWYQQIPGQSPRLLIYWASTRESGVPDRFTGSGSGTDFTLTISSVQPEDLAIYYCHQYLSSRTFGQGTKLEIK",binds
4,"MYT1222 (antibody, V domains shown, IgG; IMGN779 VH variant #10 (H35A)) VH: QVQLQQPGAEVVKPGASVKMSCKASGYTFTSYYIAWIKQTPGQGLEWVGVIYPGNDDISYNQKFQGKATLTADKSSTTAYMQLSSLTSEDSAVYYCAREVRLRYFDVWGQGTTVTVSS VL: EIVLTQSPGSLAVSPGERVTMSCKSSQSVFFSSSQKNYLAWYQQIPGQSPRLLIYWASTRESGVPDRFTGSGSGTDFTLTISSVQPEDLAIYYCHQYLSSRTFGQGTKLEIK",binds
5,"MYT1220 (antibody, V domains shown, IgG; IMGN779 VH variant #8 (Y33H)) VH: QVQLQQPGAEVVKPGASVKMSCKASGYTFTSYHIHWIKQTPGQGLEWVGVIYPGNDDISYNQKFQGKATLTADKSSTTAYMQLSSLTSEDSAVYYCAREVRLRYFDVWGQGTTVTVSS VL: EIVLTQSPGSLAVSPGERVTMSCKSSQSVFFSSSQKNYLAWYQQIPGQSPRLLIYWASTRESGVPDRFTGSGSGTDFTLTISSVQPEDLAIYYCHQYLSSRTFGQGTKLEIK",binds
6,"MYT1216 (antibody, V domains shown, IgG; IMGN779 VH variant #4 (F29H)) VH: QVQLQQPGAEVVKPGASVKMSCKASGYTHTSYYIHWIKQTPGQGLEWVGVIYPGNDDISYNQKFQGKATLTADKSSTTAYMQLSSLTSEDSAVYYCAREVRLRYFDVWGQGTTVTVSS VL: EIVLTQSPGSLAVSPGERVTMSCKSSQSVFFSSSQKNYLAWYQQIPGQSPRLLIYWASTRESGVPDRFTGSGSGTDFTLTISSVQPEDLAIYYCHQYLSSRTFGQGTKLEIK",binds
7,"MYT1214 (antibody, V domains shown, IgG; IMGN779 VH variant #2 (Y27H)) VH: QVQLQQPGAEVVKPGASVKMSCKASGHTFTSYYIHWIKQTPGQGLEWVGVIYPGNDDISYNQKFQGKATLTADKSSTTAYMQLSSLTSEDSAVYYCAREVRLRYFDVWGQGTTVTVSS VL: EIVLTQSPGSLAVSPGERVTMSCKSSQSVFFSSSQKNYLAWYQQIPGQSPRLLIYWASTRESGVPDRFTGSGSGTDFTLTISSVQPEDLAIYYCHQYLSSRTFGQGTKLEIK",binds
8,"MYT1218 (antibody, V domains shown, IgG; IMGN779 VH variant #6 (S31H)) VH: QVQLQQPGAEVVKPGASVKMSCKASGYTFTHYYIHWIKQTPGQGLEWVGVIYPGNDDISYNQKFQGKATLTADKSSTTAYMQLSSLTSEDSAVYYCAREVRLRYFDVWGQGTTVTVSS VL: EIVLTQSPGSLAVSPGERVTMSCKSSQSVFFSSSQKNYLAWYQQIPGQSPRLLIYWASTRESGVPDRFTGSGSGTDFTLTISSVQPEDLAIYYCHQYLSSRTFGQGTKLEIK",binds
9,"MYT1219 (antibody, V domains shown, IgG; IMGN779 VH variant #7 (Y32H)) VH: QVQLQQPGAEVVKPGASVKMSCKASGYTFTSHYIHWIKQTPGQGLEWVGVIYPGNDDISYNQKFQGKATLTADKSSTTAYMQLSSLTSEDSAVYYCAREVRLRYFDVWGQGTTVTVSS VL: EIVLTQSPGSLAVSPGERVTMSCKSSQSVFFSSSQKNYLAWYQQIPGQSPRLLIYWASTRESGVPDRFTGSGSGTDFTLTISSVQPEDLAIYYCHQYLSSRTFGQGTKLEIK",binds
10,"MYT1221 (antibody, V domains shown, IgG; IMGN779 VH variant #9 (I34H)) VH: QVQLQQPGAEVVKPGASVKMSCKASGYTFTSYYHHWIKQTPGQGLEWVGVIYPGNDDISYNQKFQGKATLTADKSSTTAYMQLSSLTSEDSAVYYCAREVRLRYFDVWGQGTTVTVSS VL: EIVLTQSPGSLAVSPGERVTMSCKSSQSVFFSSSQKNYLAWYQQIPGQSPRLLIYWASTRESGVPDRFTGSGSGTDFTLTISSVQPEDLAIYYCHQYLSSRTFGQGTKLEIK",binds
11,"MYT1615 (antibody, V domains shown, IgG; gemtuzumab VL variant #26 (K96H)) VH: EVQLVQSGAEVKKPGSSVKVSCKASGYTITDSNIHWVRQAPGQSLEWIGYIYPYNGGTDYNQKFKNRATLTVDNPTNTAYMELSSLRSEDTDFYYCVNGNPWLAYWGQGTLVTVSS VL: DIQLTQSPSTLSASVGDRVTITCRASESLDNYGIRFLTWFQQKPGKAPKLLMYAASNQGSGVPSRFSGSGSGTEFTLTISSLQPDDFATYYCQQTHEVPWSFGQGTKVEVK",binds
12,"MYT1617 (antibody, V domains shown, IgG; gemtuzumab VL variant #28 (V98H)) VH: EVQLVQSGAEVKKPGSSVKVSCKASGYTITDSNIHWVRQAPGQSLEWIGYIYPYNGGTDYNQKFKNRATLTVDNPTNTAYMELSSLRSEDTDFYYCVNGNPWLAYWGQGTLVTVSS VL: DIQLTQSPSTLSASVGDRVTITCRASESLDNYGIRFLTWFQQKPGKAPKLLMYAASNQGSGVPSRFSGSGSGTEFTLTISSLQPDDFATYYCQQTKEHPWSFGQGTKVEVK",binds
13,"MYT1619 (antibody, V domains shown, IgG; gemtuzumab VL variant #30 (W100H)) VH: EVQLVQSGAEVKKPGSSVKVSCKASGYTITDSNIHWVRQAPGQSLEWIGYIYPYNGGTDYNQKFKNRATLTVDNPTNTAYMELSSLRSEDTDFYYCVNGNPWLAYWGQGTLVTVSS VL: DIQLTQSPSTLSASVGDRVTITCRASESLDNYGIRFLTWFQQKPGKAPKLLMYAASNQGSGVPSRFSGSGSGTEFTLTISSLQPDDFATYYCQQTKEVPHSFGQGTKVEVK",binds
14,"MYT1620 (antibody, V domains shown, IgG; gemtuzumab VL variant #31 (S101H)) VH: EVQLVQSGAEVKKPGSSVKVSCKASGYTITDSNIHWVRQAPGQSLEWIGYIYPYNGGTDYNQKFKNRATLTVDNPTNTAYMELSSLRSEDTDFYYCVNGNPWLAYWGQGTLVTVSS VL: DIQLTQSPSTLSASVGDRVTITCRASESLDNYGIRFLTWFQQKPGKAPKLLMYAASNQGSGVPSRFSGSGSGTEFTLTISSLQPDDFATYYCQQTKEVPWHFGQGTKVEVK",binds
15,"MYT1616 (antibody, V domains shown, IgG; gemtuzumab VL variant #27 (E97H)) VH: EVQLVQSGAEVKKPGSSVKVSCKASGYTITDSNIHWVRQAPGQSLEWIGYIYPYNGGTDYNQKFKNRATLTVDNPTNTAYMELSSLRSEDTDFYYCVNGNPWLAYWGQGTLVTVSS VL: DIQLTQSPSTLSASVGDRVTITCRASESLDNYGIRFLTWFQQKPGKAPKLLMYAASNQGSGVPSRFSGSGSGTEFTLTISSLQPDDFATYYCQQTKHVPWSFGQGTKVEVK",binds
